The results in this text go back to paper PMC5534098, “Modulation of chromatin structure by the FACT histone chaperone complex regulates HIV-1 integration” (Retrovirology, 2017).

The test has as its target T1, FACT (FAcilitates Chromatin Transcription) complex, recombinant purified (human | , UniProt Q9Y5B9 1-1047; Q08945 1-709).
T1 construct: also called FACT complex; source: recombinant, purified as reported before [17, 18]
Description: pull-down. The note with it: both partners purified.

T1 sequence (Q9Y5B9 whole entry, chain 1 of 2): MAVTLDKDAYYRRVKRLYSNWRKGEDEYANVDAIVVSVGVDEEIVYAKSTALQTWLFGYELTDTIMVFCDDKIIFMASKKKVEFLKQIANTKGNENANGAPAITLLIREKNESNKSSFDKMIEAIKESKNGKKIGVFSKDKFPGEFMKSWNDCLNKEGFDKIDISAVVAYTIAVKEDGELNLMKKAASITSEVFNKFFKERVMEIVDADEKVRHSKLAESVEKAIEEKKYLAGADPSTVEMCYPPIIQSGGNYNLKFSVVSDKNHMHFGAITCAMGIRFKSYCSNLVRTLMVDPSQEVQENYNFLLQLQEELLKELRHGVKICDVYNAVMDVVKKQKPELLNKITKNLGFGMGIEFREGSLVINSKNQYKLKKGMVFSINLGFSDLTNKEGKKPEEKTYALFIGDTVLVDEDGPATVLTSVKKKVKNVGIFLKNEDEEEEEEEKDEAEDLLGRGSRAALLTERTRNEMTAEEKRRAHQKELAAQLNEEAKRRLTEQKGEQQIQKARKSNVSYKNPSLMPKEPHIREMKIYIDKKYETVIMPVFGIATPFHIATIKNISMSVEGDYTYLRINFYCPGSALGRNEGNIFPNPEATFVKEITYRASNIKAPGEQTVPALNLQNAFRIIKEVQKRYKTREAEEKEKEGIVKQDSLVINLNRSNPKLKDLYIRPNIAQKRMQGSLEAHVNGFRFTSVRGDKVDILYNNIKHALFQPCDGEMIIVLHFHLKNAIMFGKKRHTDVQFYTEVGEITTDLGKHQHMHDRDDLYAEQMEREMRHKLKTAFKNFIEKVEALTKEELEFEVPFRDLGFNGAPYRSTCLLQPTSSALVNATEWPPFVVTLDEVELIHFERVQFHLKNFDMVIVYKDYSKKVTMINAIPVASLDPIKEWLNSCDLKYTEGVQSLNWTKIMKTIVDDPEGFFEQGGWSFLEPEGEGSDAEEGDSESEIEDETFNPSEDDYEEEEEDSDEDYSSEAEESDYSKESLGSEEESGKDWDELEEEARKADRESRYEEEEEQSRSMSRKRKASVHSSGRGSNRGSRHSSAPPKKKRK
T1 sequence (Q08945 whole entry, chain 2 of 2): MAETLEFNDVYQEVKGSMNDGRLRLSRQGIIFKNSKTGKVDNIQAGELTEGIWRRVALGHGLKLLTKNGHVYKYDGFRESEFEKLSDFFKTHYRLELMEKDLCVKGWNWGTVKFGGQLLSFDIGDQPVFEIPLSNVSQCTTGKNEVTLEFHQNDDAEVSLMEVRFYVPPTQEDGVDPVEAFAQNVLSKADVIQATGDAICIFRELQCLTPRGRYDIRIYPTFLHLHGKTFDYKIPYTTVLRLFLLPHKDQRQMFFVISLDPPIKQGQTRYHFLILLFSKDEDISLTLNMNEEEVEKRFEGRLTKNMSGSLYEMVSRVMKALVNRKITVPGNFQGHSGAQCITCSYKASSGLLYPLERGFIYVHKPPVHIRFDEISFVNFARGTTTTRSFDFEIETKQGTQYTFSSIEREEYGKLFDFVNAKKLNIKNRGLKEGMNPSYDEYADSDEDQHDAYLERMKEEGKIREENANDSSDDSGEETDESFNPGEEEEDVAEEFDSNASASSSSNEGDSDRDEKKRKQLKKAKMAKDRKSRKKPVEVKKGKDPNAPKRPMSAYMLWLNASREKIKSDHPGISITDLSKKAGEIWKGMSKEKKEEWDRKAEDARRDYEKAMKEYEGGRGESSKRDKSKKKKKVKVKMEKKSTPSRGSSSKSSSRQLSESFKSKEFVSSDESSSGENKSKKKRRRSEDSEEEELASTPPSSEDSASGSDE

B1: LEDGF/p75-GST (natural protein)
chain: not shown
For the molecule B1, the binding result is “binds”.
